Source: PMC9274004, “Deciphering the Molecular Interaction Between the Adhesion G Protein-Coupled Receptor ADGRV1 and its PDZ-Containing Regulator PDZD7” (Frontiers in Molecular Biosciences, 2022)

Columns and labels:
ADGRV1 β subunit = experiment: Pull-down of ADGRV1 β subunit by full-length PDZD7-GFP from HeLa cell lysates; type: binding, murine; details: PDZD7-GFP bait, anti-GFP beads, 4°C 1 h, western blot, vs no bait
Method: (§1) HeLa cells were maintained in Dulbecco’s modified Eagle’s medium (DMEM) containing 10% fetal calf serum (FCS). PDZD7 constructs correspond to the full-length murine sequence in fusion with a N-terminal strep tag and a C-terminal GFP, wild-type or carrying G103R/G228R variants, cloned in a PMT3 vector. The ADGRV1 construct corresponds to the murine β subunit of the receptor (5884-6298) cloned in a pRK5 vector. Plasmids were transfected in separate HeLa cultures using 25 μg (PDZD7) and 10 μg (ADGRV1) of DNA per 10 cm dish using TurboFect™ Transfection Reagent (ThermoFisher Scientific) at 3 μl per μg of transfected DNA. Mixes were prepared in volumes of 1 ml/plate (in DMEM), vortexed and incubated up to 30 min at room temperature, cell media were renewed before transfection. After drop by drop addition of the transfection mix, cells were maintained at 37°C for 14 h for protein expression. Cells were dissociated using Gibco™ Trypsine-EDTA (0,05%), subsequently inactivated by addition of DMEM containing 10% FCS. Cells were counted, pelleted and resuspended at similar concentrations in PBS Tween 0.01%, Dodécyl-β-D-maltoside (DDM) 0.1% containing anti-proteases (buffer). Benzonase (Sigma) was added before sonication of the cells (40 mA amplitude, 10 pulses of 12 s with 18 s intervals, in ice). An identical volume of ADGRV1 β transfected cell lysate was mixed to either PDZD7 WT, G103R or G228R transfected cell lysates. PDZ proteins have different expression levels, meaning that different amounts of sample are needed to saturate the dynabeads with the PDZ proteins. Pull down experiments have been performed several times allowing us to estimate the yield of expression of each PDZ construct for a given amount of cells. […] Target proteins were detected using mouse α-GFP (LivingColors™ JL-8, Takara) and rabbit α-ADGRV1 (custom, raised against the cytoplasmic domain) antibodies (1/2000 in 5% milk TBST), as well as secondary α-mouse and α-rabbit IgG antibodies coupled to HRP (1/2000 in 5% milk TBST). […]

[1] = Degradation of PDZD7-GFP variants expressed in HeLa cells; details: western blot, compared to the wild-type
Method: as §1, with “Cells were dissociated using Gibco™ Trypsine-EDTA (0,05%), subsequently inactivated by addition of DMEM containing 10% FCS.” left out, “(buffer).” for “(buffer). Benzonase (Sigma) was added before sonication of the cells (40 mA amplitude, 10 pulses of 12 s with 18 s intervals, in ice). An identical volume of ADGRV1 β transfected cell lysate was mixed to either PDZD7 WT, G103R or G228R transfected cell lysates. PDZ proteins have different expression levels, meaning that different amounts of sample are needed to saturate the dynabeads with the PDZ proteins. Pull down experiments have been performed several times allowing us to estimate the yield of expression of each PDZ construct for a given amount of cells.”

[2] = Aggregation / sample stability of purified PDZ2 constructs; type: physicochemical
Excerpt: The biochemical behavior of PDZD7 PDZ2 drastically differs from PDZ1, with or without its C-terminal extension. […] In order to further establish the accessible folding states of the PDZ2 extension, we used the same metadynamics approach as for PDZ1ext and probed its conformational energy landscape (Figure 3C).

Molecule	binding of ADGRV1 β subunit (pull-down) (ADGRV1 β subunit)	degradation [1]	sample stability ([2]; 15N-labelled PDZ2 constructs, NMR)	aggregation ([2]; at temperatures higher than 15 °C, despite extensive screening of buffer conditions)	aggregation ([2]; during biophysical experiments, low yield)
G103R: full-length murine PDZD7-GFP carrying G103R variant (protein, UniProt E9Q9W7 1-1021, looked up, variant G103R, full-length C-terminal GFP fusion, full-length murine PDZD7-GFP carrying G103R variant) MARGFTVGFDPLGLGELSSGSLSSVSSRGHLGSDSGSTATRYLLRKQQRLLNGPSRGIRASSPMGRVILINSPIEANSDESDIIHAVRVEKSPSGRLGFSVRRGSEHGLGIFVSKVEEGSSAERAGLCVGDKITEVNGLSLESTTMGSAVRLLTSSSCLHMMVRRMGRVPGIKFSKEKTTWVDVVNRRLVVEKCSSTPSDRSSEDGVRRIVHLYTTSDDFCLGFNIRGGKEFGLGIYVSKVDHGGLAEENGIKVGDQVLAANGVRFDDISHSQAVEVLKGQTHIMLTIKETGRYPAYKEMVSEYCWLDRLSNGVLQQLSPASESSSSVSSYASSAPCSSGSLPSDRMDVCLGPEEPTSHGPGWGRADTAMQTEPDLDSRVETWCSVRPTVILRDTAIRSDGPSSTRHLDSALSESPKTALLLALSRPRTPITRSQSHLTLWEEKKQRKKEKSGSSGEKGALQRSKTLMNLFFKGGRQGRPAGDGHREAWTLDSRSPTKVRPRLDLEKAGSVGPVQKFVTWRLRRDRERGRALLSARSGSPSGQAPTVNEQVQAWESRRPLIQDLARRLLTDDEVLAVTRHCSRYVHEGGVEDLVRPLLAILDRPTKLLLLRDIRSVVAPTDLGRFDSMVMPVELEAFEALKSRAVGPSALRPTRQDTPPKRHLITPVPDSRGGFYLLPVNSSEDEDGEIREKLGVLKVSLGASAPHHKGIPPLQDVPVDAFSLRRGACAPPPQPPPVAPRPPRPNWLLTEPLSREDTQQNQSQTPAQSCSRSRSRSRSRSHSRGQGKSPGRRRSPSPAPIATAATANGRYHRPRKARPLLPRLLDGQVAKVGARQGPLENGRIAEEAVGNVSTGALRTITLSKMKQSLGISISGGIESKVQPMVKIEKIFPGGAAFLCGDLQAGFELVAVDGESLEQVTHQRAVDTIRRAYRNKAREPMELVVRVPGPGLLPLASDLRVVKDQSLAPDCPSALGPVDDARILTQLPPPEARQLQQSLSSALKVPQSIPKLSPILKDPHDPS	a decrease of ADGRV1 quantity bound to the beads was observed in comparison with wild-type PDZD7, similar to the experiment performed without bait	higher tendency for degradation			
G228R: full-length murine PDZD7-GFP carrying G228R variant (protein, UniProt E9Q9W7 1-1021, looked up, variant G228R, full-length C-terminal GFP fusion, full-length murine PDZD7-GFP carrying G228R variant) MARGFTVGFDPLGLGELSSGSLSSVSSRGHLGSDSGSTATRYLLRKQQRLLNGPSRGIRASSPMGRVILINSPIEANSDESDIIHAVRVEKSPSGRLGFSVRGGSEHGLGIFVSKVEEGSSAERAGLCVGDKITEVNGLSLESTTMGSAVRLLTSSSCLHMMVRRMGRVPGIKFSKEKTTWVDVVNRRLVVEKCSSTPSDRSSEDGVRRIVHLYTTSDDFCLGFNIRRGKEFGLGIYVSKVDHGGLAEENGIKVGDQVLAANGVRFDDISHSQAVEVLKGQTHIMLTIKETGRYPAYKEMVSEYCWLDRLSNGVLQQLSPASESSSSVSSYASSAPCSSGSLPSDRMDVCLGPEEPTSHGPGWGRADTAMQTEPDLDSRVETWCSVRPTVILRDTAIRSDGPSSTRHLDSALSESPKTALLLALSRPRTPITRSQSHLTLWEEKKQRKKEKSGSSGEKGALQRSKTLMNLFFKGGRQGRPAGDGHREAWTLDSRSPTKVRPRLDLEKAGSVGPVQKFVTWRLRRDRERGRALLSARSGSPSGQAPTVNEQVQAWESRRPLIQDLARRLLTDDEVLAVTRHCSRYVHEGGVEDLVRPLLAILDRPTKLLLLRDIRSVVAPTDLGRFDSMVMPVELEAFEALKSRAVGPSALRPTRQDTPPKRHLITPVPDSRGGFYLLPVNSSEDEDGEIREKLGVLKVSLGASAPHHKGIPPLQDVPVDAFSLRRGACAPPPQPPPVAPRPPRPNWLLTEPLSREDTQQNQSQTPAQSCSRSRSRSRSRSHSRGQGKSPGRRRSPSPAPIATAATANGRYHRPRKARPLLPRLLDGQVAKVGARQGPLENGRIAEEAVGNVSTGALRTITLSKMKQSLGISISGGIESKVQPMVKIEKIFPGGAAFLCGDLQAGFELVAVDGESLEQVTHQRAVDTIRRAYRNKAREPMELVVRVPGPGLLPLASDLRVVKDQSLAPDCPSALGPVDDARILTQLPPPEARQLQQSLSSALKVPQSIPKLSPILKDPHDPS	a decrease of ADGRV1 quantity bound to the beads was observed in comparison with wild-type PDZD7, similar to the experiment performed without bait	higher tendency for degradation			
PDZ2: second PDZ of mouse PDZD7 (G206 to G292) (protein, left off: GST, N-terminal, cleaved) GVRRIVHLYTTSDDFCLGFNIRGGKEFGLGIYVSKVDHGGLAEENGIKVGDQVLAANGVRFDDISHSQAVEVLKGQTHIMLTIKETG			stable for a few hours only	Rapid aggregation	
PDZ2 G228R: PDZD7 PDZ2 carrying deafness-causing mutation G228R (protein, UniProt E9Q9W7 206-292, looked up, variant G228R) GVRRIVHLYTTSDDFCLGFNIRRGKEFGLGIYVSKVDHGGLAEENGIKVGDQVLAANGVRFDDISHSQAVEVLKGQTHIMLTIKETG					severe aggregation
